{"source": "paper PMC10783490", "about": "“Biochemical and cellular insights into the Baz2B protein, a non-catalytic subunit of the chromatin remodeling complex” (Nucleic Acids Research, 2023)", "binders": {"B1": {"name": "45 bp dsDNA FLP015/FLP016 (dsDNA)", "DNA 1": "ATCAGTTCTCCGGGTTGTCAGGTCGACCAGTTGTTCCTTTGAGGT", "DNA 2": "ACCTCAAAGGAACAACTGGTCGACCTGACAACCCGGAGAACTGAT"}, "B2": {"name": "En3_D 29 bp dsDNA (dsDNA)", "DNA 1": "TCTTTTTTTTTTTTTTTCTTTTTTCCTCC", "DNA 2": "GGAGGAAAAAAGAAAAAAAAAAAAAAAGA"}, "B3": {"name": "rDNA enhancer (En dsDNA) (dsDNA)", "DNA 1": "TGGATCTTTTTTTTTTTTTTTCTTTTTCCTCCA", "DNA 2": "TGGAGGAAAAAGAAAAAAAAAAAAAAAGATCCA"}, "B4": {"name": "DNA triplex En3_D + TFO #5 (structured_DNA)", "DNA 1": "TCTTTTTTTTTTTTTTTCTTTTTTCCTCC", "DNA 2": "GGAGGAAAAAAGAAAAAAAAAAAAAAAGA", "DNA 3": "GGAGGAAAAAAGAAAAAAAAAAAAAAAGA"}}, "key": {"TAM-AT1-AT2 Baz2B L766A": {"target": "T1, TAM-AT1-AT2 Baz2B L766A (Homo sapiens, UniProt Q9UIF8 721-884, L766A)", "T1 sequence": "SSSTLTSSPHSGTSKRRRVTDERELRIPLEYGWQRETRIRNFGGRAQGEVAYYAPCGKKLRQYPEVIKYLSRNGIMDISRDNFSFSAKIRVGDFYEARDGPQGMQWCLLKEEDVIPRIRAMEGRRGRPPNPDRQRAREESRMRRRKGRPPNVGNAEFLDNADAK", "assay": "EMSA; EMSA: 20 mM HEPES pH 7.5, 30 mM KCl, 1 mM EDTA, 10 mM (NH4)2SO4, 1 mM DTT, 4 C, 10 nM probe; MST: same plus 0.1 ug/ml BSA, 5 nM probe, 25 C; GST-AT-hook and bromodomain EMSA as in cited refs", "conditions": "protein: recombinant; tags: His6; blunt"}, "TAM-AT1-AT2 Baz2B [1]": {"target": "T2, TAM-AT1-AT2 Baz2B (Homo sapiens, UniProt Q9UIF8 721-884)", "T2 sequence": "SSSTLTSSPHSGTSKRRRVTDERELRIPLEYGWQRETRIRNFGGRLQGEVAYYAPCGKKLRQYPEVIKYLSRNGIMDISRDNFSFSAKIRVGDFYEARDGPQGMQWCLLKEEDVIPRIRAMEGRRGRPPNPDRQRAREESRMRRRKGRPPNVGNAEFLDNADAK", "assay": "EMSA; EMSA: 20 mM HEPES pH 7.5, 30 mM KCl, 1 mM EDTA, 10 mM (NH4)2SO4, 1 mM DTT, 4 C, 10 nM probe; MST: same plus 0.1 ug/ml BSA, 5 nM probe, 25 C; GST-AT-hook and bromodomain EMSA as in cited refs", "conditions": "protein: recombinant; tags: His6; blunt"}, "TAM-AT1-AT2 Baz2B R760E": {"target": "T3, TAM-AT1-AT2 Baz2B R760E (Homo sapiens, UniProt Q9UIF8 721-884, R760E)", "T3 sequence": "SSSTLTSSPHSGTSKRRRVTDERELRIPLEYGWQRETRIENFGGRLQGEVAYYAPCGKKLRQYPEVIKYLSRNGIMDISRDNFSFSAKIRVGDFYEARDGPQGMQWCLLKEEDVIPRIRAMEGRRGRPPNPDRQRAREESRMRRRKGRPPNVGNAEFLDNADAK", "assay": "EMSA; EMSA: 20 mM HEPES pH 7.5, 30 mM KCl, 1 mM EDTA, 10 mM (NH4)2SO4, 1 mM DTT, 4 C, 10 nM probe; MST: same plus 0.1 ug/ml BSA, 5 nM probe, 25 C; GST-AT-hook and bromodomain EMSA as in cited refs", "conditions": "protein: recombinant; tags: His6; blunt"}, "TAM-AT1-AT2 Baz2B Q767A": {"target": "T4, TAM-AT1-AT2 Baz2B Q767A (Homo sapiens, UniProt Q9UIF8 721-884, Q767A)", "T4 sequence": "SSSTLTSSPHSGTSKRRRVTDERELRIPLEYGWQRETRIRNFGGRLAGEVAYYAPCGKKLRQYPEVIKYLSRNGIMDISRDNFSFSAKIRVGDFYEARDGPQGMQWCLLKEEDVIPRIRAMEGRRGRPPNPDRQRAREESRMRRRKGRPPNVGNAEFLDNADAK", "assay": "EMSA; EMSA: 20 mM HEPES pH 7.5, 30 mM KCl, 1 mM EDTA, 10 mM (NH4)2SO4, 1 mM DTT, 4 C, 10 nM probe; MST: same plus 0.1 ug/ml BSA, 5 nM probe, 25 C; GST-AT-hook and bromodomain EMSA as in cited refs", "conditions": "protein: recombinant; tags: His6; blunt"}, "TAM Baz2B": {"target": "T5, TAM Baz2B (Homo sapiens, UniProt Q9UIF8 721-843)", "T5 sequence": "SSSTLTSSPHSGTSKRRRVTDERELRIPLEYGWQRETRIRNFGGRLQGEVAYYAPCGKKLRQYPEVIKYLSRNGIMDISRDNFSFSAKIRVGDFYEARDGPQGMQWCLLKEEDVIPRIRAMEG", "assay": "EMSA; EMSA: 20 mM HEPES pH 7.5, 30 mM KCl, 1 mM EDTA, 10 mM (NH4)2SO4, 1 mM DTT, 4 C, 10 nM probe; MST: same plus 0.1 ug/ml BSA, 5 nM probe, 25 C; GST-AT-hook and bromodomain EMSA as in cited refs", "conditions": "protein: recombinant; tags: His6; blunt"}, "TAM-AT1-AT2 Baz2B R837E": {"target": "T6, TAM-AT1-AT2 Baz2B R837E (Homo sapiens, UniProt Q9UIF8 721-884, R837E)", "T6 sequence": "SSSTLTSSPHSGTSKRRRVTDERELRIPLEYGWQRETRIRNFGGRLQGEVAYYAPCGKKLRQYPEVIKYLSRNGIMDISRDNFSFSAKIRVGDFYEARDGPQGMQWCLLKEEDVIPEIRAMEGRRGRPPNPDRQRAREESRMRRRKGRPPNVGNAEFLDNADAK", "assay": "EMSA; EMSA: 20 mM HEPES pH 7.5, 30 mM KCl, 1 mM EDTA, 10 mM (NH4)2SO4, 1 mM DTT, 4 C, 10 nM probe; MST: same plus 0.1 ug/ml BSA, 5 nM probe, 25 C; GST-AT-hook and bromodomain EMSA as in cited refs", "conditions": "protein: recombinant; tags: His6; blunt"}, "TAM-AT1-AT2 Baz2B R765E": {"target": "T7, TAM-AT1-AT2 Baz2B R765E (Homo sapiens, UniProt Q9UIF8 721-884, R765E)", "T7 sequence": "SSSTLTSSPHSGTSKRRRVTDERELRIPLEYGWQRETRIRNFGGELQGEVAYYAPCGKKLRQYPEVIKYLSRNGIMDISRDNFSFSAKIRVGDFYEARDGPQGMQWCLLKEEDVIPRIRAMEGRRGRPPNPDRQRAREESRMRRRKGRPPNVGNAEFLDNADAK", "assay": "EMSA; EMSA: 20 mM HEPES pH 7.5, 30 mM KCl, 1 mM EDTA, 10 mM (NH4)2SO4, 1 mM DTT, 4 C, 10 nM probe; MST: same plus 0.1 ug/ml BSA, 5 nM probe, 25 C; GST-AT-hook and bromodomain EMSA as in cited refs", "conditions": "protein: recombinant; tags: His6; blunt"}, "TAM-AT1-AT2 Baz2B R781E": {"target": "T8, TAM-AT1-AT2 Baz2B R781E (Homo sapiens, UniProt Q9UIF8 721-884, R781E)", "T8 sequence": "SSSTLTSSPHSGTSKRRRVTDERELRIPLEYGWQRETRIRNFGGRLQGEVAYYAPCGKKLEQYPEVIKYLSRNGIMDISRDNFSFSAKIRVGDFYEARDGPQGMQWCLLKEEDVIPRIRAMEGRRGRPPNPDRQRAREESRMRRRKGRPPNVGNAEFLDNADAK", "assay": "EMSA; EMSA: 20 mM HEPES pH 7.5, 30 mM KCl, 1 mM EDTA, 10 mM (NH4)2SO4, 1 mM DTT, 4 C, 10 nM probe; MST: same plus 0.1 ug/ml BSA, 5 nM probe, 25 C; GST-AT-hook and bromodomain EMSA as in cited refs", "conditions": "protein: recombinant; tags: His6; blunt"}, "TAM-AT1-AT2 Baz2B [2]": {"target": "T2, TAM-AT1-AT2 Baz2B", "assay": "EMSA; mutant series; EMSA: 20 mM HEPES pH 7.5, 30 mM KCl, 1 mM EDTA, 10 mM (NH4)2SO4, 1 mM DTT, 4 C, 10 nM probe; MST: same plus 0.1 ug/ml BSA, 5 nM probe, 25 C; GST-AT-hook and bromodomain EMSA as in cited refs", "conditions": "protein: recombinant; tags: His6; blunt"}, "BRD Brg1 [3]": {"target": "T9, BRD Brg1 (UniProt P51532 1453-1564)", "T9 sequence (P51532 1453-1564)": "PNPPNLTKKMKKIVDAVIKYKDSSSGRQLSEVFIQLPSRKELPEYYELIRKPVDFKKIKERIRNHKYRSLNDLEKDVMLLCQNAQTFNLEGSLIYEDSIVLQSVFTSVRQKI", "assay": "EMSA; one pot with triplex and TFO; EMSA: 20 mM HEPES pH 7.5, 30 mM KCl, 1 mM EDTA, 10 mM (NH4)2SO4, 1 mM DTT, 4 C, 10 nM probe; MST: same plus 0.1 ug/ml BSA, 5 nM probe, 25 C; GST-AT-hook and bromodomain EMSA as in cited refs", "conditions": "protein: recombinant; tags: His6; blunt"}, "BRD Baz2B": {"target": "T10, BRD Baz2B (Homo sapiens, UniProt Q9UIF8 2060-2164)", "T10 sequence": "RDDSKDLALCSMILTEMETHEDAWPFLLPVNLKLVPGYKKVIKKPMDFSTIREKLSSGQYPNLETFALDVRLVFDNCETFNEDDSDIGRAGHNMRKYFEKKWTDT", "assay": "EMSA; up to 112 uM, one pot; EMSA: 20 mM HEPES pH 7.5, 30 mM KCl, 1 mM EDTA, 10 mM (NH4)2SO4, 1 mM DTT, 4 C, 10 nM probe; MST: same plus 0.1 ug/ml BSA, 5 nM probe, 25 C; GST-AT-hook and bromodomain EMSA as in cited refs", "conditions": "protein: recombinant, tags: His6"}, "BRD Brg1 [4]": {"target": "T9, BRD Brg1", "assay": "EMSA; one pot with triplex and duplex; EMSA: 20 mM HEPES pH 7.5, 30 mM KCl, 1 mM EDTA, 10 mM (NH4)2SO4, 1 mM DTT, 4 C, 10 nM probe; MST: same plus 0.1 ug/ml BSA, 5 nM probe, 25 C; GST-AT-hook and bromodomain EMSA as in cited refs", "conditions": "protein: recombinant; tags: His6"}, "GST-AT1-AT2 Baz2A": {"target": "T11, GST-AT1-AT2 Baz2A (UniProt Q91YE5 641-674)", "T11 chain": "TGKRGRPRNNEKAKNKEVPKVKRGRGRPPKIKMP", "assay": "EMSA; 1.25 uM DNA, 3.6 or 14.4 uM protein; EMSA: 20 mM HEPES pH 7.5, 30 mM KCl, 1 mM EDTA, 10 mM (NH4)2SO4, 1 mM DTT, 4 C, 10 nM probe; MST: same plus 0.1 ug/ml BSA, 5 nM probe, 25 C; GST-AT-hook and bromodomain EMSA as in cited refs", "conditions": "protein: recombinant; tags: GST; label: none (SybrSafe); blunt"}, "BRD Brg1 [5]": {"target": "T9, BRD Brg1", "assay": "EMSA; one pot with duplex and TFO; EMSA: 20 mM HEPES pH 7.5, 30 mM KCl, 1 mM EDTA, 10 mM (NH4)2SO4, 1 mM DTT, 4 C, 10 nM probe; MST: same plus 0.1 ug/ml BSA, 5 nM probe, 25 C; GST-AT-hook and bromodomain EMSA as in cited refs", "conditions": "protein: recombinant; tags: His6; triplex, third strand TFO"}}}
{"binder": "B1", "values": [{"measurement": "Kd", "setting": "TAM-AT1-AT2 Baz2B L766A", "result": "98.1 ± 29.5", "unit": "nM"}, {"measurement": "Kd", "setting": "TAM-AT1-AT2 Baz2B [1]", "result": 82.2, "unit": "nM"}, {"measurement": "Kd", "setting": "TAM-AT1-AT2 Baz2B R760E", "result": "93.6 ± 38.2", "unit": "nM"}, {"measurement": "Kd", "setting": "TAM-AT1-AT2 Baz2B Q767A", "result": "440 ± 256", "unit": "nM"}, {"measurement": "Kd", "setting": "TAM Baz2B", "result": 468, "unit": "nM"}, {"measurement": "Kd", "setting": "TAM-AT1-AT2 Baz2B R837E", "result": "108 ± 9.3", "unit": "nM"}, {"measurement": "Kd", "setting": "TAM-AT1-AT2 Baz2B R765E", "result": "30.8 ± 6.9", "unit": "nM"}, {"measurement": "Kd", "setting": "TAM-AT1-AT2 Baz2B R781E", "result": "232 ± 101", "unit": "nM"}, {"measurement": "Kd", "setting": "TAM-AT1-AT2 Baz2B [2]", "result": "116 ± 50.9", "unit": "nM"}]}
{"binder": "B2", "values": [{"measurement": "binding result", "setting": "BRD Brg1 [3]", "result": "binds"}, {"measurement": "binding result", "setting": "BRD Baz2B; blunt", "result": "no binding"}]}
{"binder": "GGAGGAAAAAAGAAAAAAAAAAAAAAAGA (ssDNA)", "note": "[TFO #5 (29 nt ssDNA)]", "values": [{"measurement": "binding result", "setting": "BRD Baz2B", "result": "no binding"}, {"measurement": "binding result", "setting": "BRD Brg1 [4]", "result": "no binding"}]}
{"binder": "B3", "values": [{"measurement": "binding result", "setting": "GST-AT1-AT2 Baz2A", "result": "binds"}]}
{"binder": "B4", "values": [{"measurement": "binding result", "setting": "BRD Brg1 [5]", "result": "binds"}, {"measurement": "binding result", "setting": "BRD Baz2B; triplex, third strand TFO", "result": "no binding"}]}
